The test system of assay [1] is bleomycin mouse model of pulmonary fibrosis. The assay can be described thus: Bleomycin mouse pulmonary fibrosis model. The format is in vivo. Particulars: bleomycin model, 21 d. The protocol: (§1) 6 to 8-week-old male C57BL/6J mice (purchased from Guangdong Sijiajingda Biotechnology Co., Ltd., license No.: SCXK (Guangdong) 2020-0052) were grouped, modeled, and administered according to the protocols shown in Tables 6 and 7 below. The modeling with bleomycin (Nippon Kayaku, 15 mg powder, and dose: 1.5 mg/kg) and silica (SiO2, sigma, USA, S5631-500 g, and dose: 2.5 mg/mouse) was started on day 0 (DO). The administration was started on day 1 (D1), and normal saline was adopted as a solvent for an antibody. A positive drug pirfenidone (Beijing Kangdini Pharmaceutical Co., Ltd., 100 mg capsule) was adopted in a positive control group, and the humanized antibody hu.CA1 (VH1−VL2) of the present application was adopted in an anti-IL-9 antibody group.
(§2) A body weight of each mouse was measured every day. After the bleomycin model group was administered for 21 d and the silica model group was administered for 30 d, mice were sacrificed to collect lung tissues. The lung tissues each were stained to detect pathological changes in the lung tissues. Specifically, a degree of alveolar inflammation was detected through HE staining (an HE staining kit was purchased from Shanghai Beyotime Biotechnology, C0105M). A degree of pulmonary fibrosis was detected through Masson staining (a Masson staining kit was purchased from Nanjing Jiancheng Institute of Biological Engineering, D026-1-2). Scoring criteria for the HE staining and Masson staining were shown in Table 8 and Table 9 below, respectively (as shown in references: Matute-Bello G, Downey G, Moore B B, et al. An official American Thoracic Society workshop report: features and measurements of experimental acute lung injury in animals. Am J Respir Cell Mol Biol. 2011; 44 (5): 725-738. doi: 10.1165/rcmb.2009-0210ST and Lee Hyun Ju, Goo Jin Mo, Kim Na Ra et al. Semiquantitative measurement of murine bleomycin-induced lung fibrosis in in vivo and postmortem conditions using microcomputed tomography: correlation with pathologic scores—initial results. [J].Invest Radiol, 2008, 43: 453-60).

The test system of assay [2] is silica mouse model of pulmonary fibrosis. The assay can be described thus: Silica mouse pulmonary fibrosis model. The format is in vivo, C57BL/6J mice. Particulars: 30 d. The protocol: as §1, §2
In assay [3] the target is T1, IL-9 (Homo sapiens, UniProt P15248).
T1 construct: pcDNA3.4-IL9 (19-144)-His (P15248); His (C); made in house; host or cells: 293F cells (transient transfection)
Put plainly: ELISA binding of humanized antibodies to the target antigen. As to conditions: ELISA of culture supernatant of 293F cells, control chimeric antibody CA1. The protocol:
ELISA was conducted according to a standard protocol to determine the affinity of a purified antibody for the IL-9-His recombinant protein. In short, the IL-9-His recombinant protein was diluted with sterile PBS and added at 100 μL/well to a 96-well plate. The plate was incubated at 4° C. overnight and then blocked with a blocking buffer. 100 μL of a purified anti-IL-9 antibody serially diluted was added to the plate, and the plate was incubated for 1 h at room temperature. PBS was added to a control well. The plate was washed with PBST 3 times. Then 100 μL of horseradish peroxidase (HRP)-labeled anti-mouse IgG H&L (BIODRAGON, CAT #BF03001) was added, and the plate was incubated for 1 h at room temperature. The plate was washed with PBST 3 times. Then a chromogenic reaction was conducted with a 3,3′,5,5′-tetramethylbenzidine (TMB) chromogenic solution at room temperature. An OD value in each well was read by a microplate reader. Data was processed with PRISM GraphPad, and curves were plotted. The EC50 value for each candidate antibody was calculated.
Humanized antibody expression vectors carrying a designed heavy-chain or light-chain sequence were transiently transfected into 293F cells in pairs, and then a resulting culture supernatant was collected. According to a standard protocol (with reference to part 5.1 in Example 1), with a human-mouse chimeric antibody CA1 constructed with VH and VL of the original murine antibody as a control, the binding of a humanized antibody to a target antigen was detected by ELISA. The method for ELISA was the same as described in 5.1 of Example 1. […] In the follow-up experiments, the four combinations of VH1−VL2, VH1−VL4, VH2−VL4, and VH3−VL4 (hu.CA1 to hu.CA4) were taken as examples for antibody purification and function testing. […]
On the technique in general: In an ELISA, binding on a coated surface is turned into a signal by an enzyme label.

Where [4] appears, read: antibody 100 μg i.p. every other day, pirfenidone 300 mg/kg intragastric daily.

T1 sequence (P15248 19-144): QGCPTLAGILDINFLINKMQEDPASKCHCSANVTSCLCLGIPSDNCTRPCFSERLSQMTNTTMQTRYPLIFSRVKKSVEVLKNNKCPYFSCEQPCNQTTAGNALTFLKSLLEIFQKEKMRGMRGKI

Take `Cc1ccc(=O)n(-c2ccccc2)c1` [pirfenidone, reference compound]: the “collagen fibers and fibrosis regions of lung tissues (Masson staining)” value in assay [1] and in assay [2] was “significantly reduced” in each case. For the same molecule, the inflammation score entry in assay [1] (HE staining, FIG. 9B) is reported as “significantly reduce an inflammation score”; in assay [2] (HE staining, FIG. 11B), “significantly reduce an inflammation score”. Moreover, the fibrosis score entry in assay [1] (Masson staining, FIG. 10B) is recorded as “significantly reduce a fibrosis score”; in assay [2] (Masson staining, FIG. 12B) it was “reduce a fibrosis score”. For the same molecule, the “lung tissue structures (HE staining)” value in assay [1] (setting [4]) and in assay [2] (setting [4]) was “improved” throughout.

B1: VH3+VL4: humanized antibody, VH SEQ ID NO: 28, VL SEQ ID NO: 33 (antibody, V domains shown)
VH: EVQLVQSGAEVMKPGASVKVSCKATGYTFTGYWIEWVRLAPGQGLEWMGEILPGSGSTNYNQKLQGRVTFTADTSTNTAYMELRSLRSDDTAIYYCARRTYYYGIPEDYWGQGTLVTVSS
VL: DIVMTQSPKFLSASVGDRVTITCKASQNVGTNVAWHQQKPGQSPKPLIYSASYRYSGVPSRFTGSGSGTDFTLTISNLQPEDFAEYFCQQYNSYPLTFGAGTKLEIK
On to B1, for which the “binding to IL-9” value in assay [3] is on record as “bind to IL-9 with high affinity”.

B2: VH1+VL3: humanized antibody, VH SEQ ID NO: 26, VL SEQ ID NO: 32 (antibody, V domains shown)
VH: EVQLKQSGAEVMKPGASVKVSCKATGYTFTGYWIEWVRLAPGHGLEWMGEILPGSGSTNYNQKFQGRVTFTADTSINTAYMELSRLRSDDTAIYYCARRTYYYGIPEDYWGQGTLVTVSS
VL: DIVMTQSPKFVSTSVGDRVTITCRASQNVGTNVAWHQQKPGQSPKPLIYSASYRYSGVPSRFTGSGSGTDFTLTISNLQPEDFAEYFCQQYNSYPLTFGAGTKLEIK
Turning to B2, the “binding to IL-9” value in assay [3] was “bind to IL-9 with high affinity”.

B3: VH3+VL3: humanized antibody, VH SEQ ID NO: 28, VL SEQ ID NO: 32 (antibody, V domains shown)
VH: EVQLVQSGAEVMKPGASVKVSCKATGYTFTGYWIEWVRLAPGQGLEWMGEILPGSGSTNYNQKLQGRVTFTADTSTNTAYMELRSLRSDDTAIYYCARRTYYYGIPEDYWGQGTLVTVSS
VL: DIVMTQSPKFVSTSVGDRVTITCRASQNVGTNVAWHQQKPGQSPKPLIYSASYRYSGVPSRFTGSGSGTDFTLTISNLQPEDFAEYFCQQYNSYPLTFGAGTKLEIK
Regarding B3, the “binding to IL-9” value in assay [3] is given as “bind to IL-9 with high affinity”.

B4: VH2+VL3: humanized antibody, VH SEQ ID NO: 27, VL SEQ ID NO: 32 (antibody, V domains shown)
VH: EVQLVQSGAEVMKPGASVKVSCKATGYTFTGYWIEWVRLAPGQGLEWMGEILPGSGSTNYNQKFQGRVTFTADTSTNTAYMELSSLRSEDTAIYYCARRTYYYGIPEDYWGQGTLVTVSS
VL: DIVMTQSPKFVSTSVGDRVTITCRASQNVGTNVAWHQQKPGQSPKPLIYSASYRYSGVPSRFTGSGSGTDFTLTISNLQPEDFAEYFCQQYNSYPLTFGAGTKLEIK
On to B4, for which the “binding to IL-9” value in assay [3] is listed as “bind to IL-9 with high affinity”.

B5: VH3+VL1: humanized antibody, VH SEQ ID NO: 28, VL SEQ ID NO: 30 (antibody, V domains shown)
VH: EVQLVQSGAEVMKPGASVKVSCKATGYTFTGYWIEWVRLAPGQGLEWMGEILPGSGSTNYNQKLQGRVTFTADTSTNTAYMELRSLRSDDTAIYYCARRTYYYGIPEDYWGQGTLVTVSS
VL: DIVMTQSQKFLSTSVGDRVTITCRASQNVGTNVAWHQQKPGQSPKPLIYSASYRYSGVPSRFTGSGSGTDFTLTISNLQPEDFAEYFCQQYNSYPLTFGAGTKLEIK
Consider B5, for which, in assay [3], the “binding to IL-9” value is on record as “bind to IL-9 with high affinity”.

B6: VH4+VL3: humanized antibody, VH SEQ ID NO: 29, VL SEQ ID NO: 32 (antibody, V domains shown)
VH: EVQLKQSGAEVMKPGASVKLSCKATGYTFTGYWIEWVKLAPGHGLEWIGEILPGSGSTNYNEEFQGRVTFTADTSSNTAYMELSRLRSDDTAIYYCARRTYYYGIPEDYWGQGTLVTVSS
VL: DIVMTQSPKFVSTSVGDRVTITCRASQNVGTNVAWHQQKPGQSPKPLIYSASYRYSGVPSRFTGSGSGTDFTLTISNLQPEDFAEYFCQQYNSYPLTFGAGTKLEIK
For the molecule B6, the “binding to IL-9” value in assay [3] is given as “bind to IL-9 with high affinity”.

B7: VH1+VL1: humanized antibody, VH SEQ ID NO: 26, VL SEQ ID NO: 30 (antibody, V domains shown)
VH: EVQLKQSGAEVMKPGASVKVSCKATGYTFTGYWIEWVRLAPGHGLEWMGEILPGSGSTNYNQKFQGRVTFTADTSINTAYMELSRLRSDDTAIYYCARRTYYYGIPEDYWGQGTLVTVSS
VL: DIVMTQSQKFLSTSVGDRVTITCRASQNVGTNVAWHQQKPGQSPKPLIYSASYRYSGVPSRFTGSGSGTDFTLTISNLQPEDFAEYFCQQYNSYPLTFGAGTKLEIK
As for B7, the “binding to IL-9” value in assay [3] was “bind to IL-9 with high affinity”.

B8: VH2+VL1: humanized antibody, VH SEQ ID NO: 27, VL SEQ ID NO: 30 (antibody, V domains shown)
VH: EVQLVQSGAEVMKPGASVKVSCKATGYTFTGYWIEWVRLAPGQGLEWMGEILPGSGSTNYNQKFQGRVTFTADTSTNTAYMELSSLRSEDTAIYYCARRTYYYGIPEDYWGQGTLVTVSS
VL: DIVMTQSQKFLSTSVGDRVTITCRASQNVGTNVAWHQQKPGQSPKPLIYSASYRYSGVPSRFTGSGSGTDFTLTISNLQPEDFAEYFCQQYNSYPLTFGAGTKLEIK
As to B8, in assay [3], the “binding to IL-9” value is “bind to IL-9 with high affinity”.

B9: VH2+VL4: humanized antibody, VH SEQ ID NO: 27, VL SEQ ID NO: 33 (antibody, V domains shown)
VH: EVQLVQSGAEVMKPGASVKVSCKATGYTFTGYWIEWVRLAPGQGLEWMGEILPGSGSTNYNQKFQGRVTFTADTSTNTAYMELSSLRSEDTAIYYCARRTYYYGIPEDYWGQGTLVTVSS
VL: DIVMTQSPKFLSASVGDRVTITCKASQNVGTNVAWHQQKPGQSPKPLIYSASYRYSGVPSRFTGSGSGTDFTLTISNLQPEDFAEYFCQQYNSYPLTFGAGTKLEIK
Consider B9, for which the “binding to IL-9” value in assay [3] is “bind to IL-9 with high affinity”.

B10: VH4+VL1: humanized antibody, VH SEQ ID NO: 29, VL SEQ ID NO: 30 (antibody, V domains shown)
VH: EVQLKQSGAEVMKPGASVKLSCKATGYTFTGYWIEWVKLAPGHGLEWIGEILPGSGSTNYNEEFQGRVTFTADTSSNTAYMELSRLRSDDTAIYYCARRTYYYGIPEDYWGQGTLVTVSS
VL: DIVMTQSQKFLSTSVGDRVTITCRASQNVGTNVAWHQQKPGQSPKPLIYSASYRYSGVPSRFTGSGSGTDFTLTISNLQPEDFAEYFCQQYNSYPLTFGAGTKLEIK
Take B10: the “binding to IL-9” value in assay [3] is listed as “bind to IL-9 with high affinity”.

(Values after patent US20250122278A1, “ANTI-INTERLEUKIN-9 ANTIBODY AND USE THEREOF” (GUANGDONG KEGUANDA PHARMACEUTICAL TECHNOLOGY CO., LTD., priority 2022, published 2025).)
